Assay: label from the status in PepcDB records

For “MVSDADASTSSSSIDIMPSANIQNDVPEPSVHTSHRRTRKPAYLQDYYCHSVASLTIHDISQFLSYEKVSPLYHSFLVCIAKAKEPSTYNEAKEFLVWCGAMDDEIGAMETTHTWEICTLPPNKKPIGCKWVYKIKYNSDGTIERYKARLVAKGYTQQEGIDFIETFSPVCKLTSVKLILAISAIYNFTLHQLDISNAFLNGDLDEEIYMKLPPGYAARQGDSLPPNAVCYLKKSIYGLKQASRQWFLKFSVTLIGFGFVQSHSDHTYFLKITATLFLCVLVYVDDIIICSNNDAAVDELKSQLKSCFKLRDLGPLKYFLGLEIARSAAGINICQRKYALDLLDETGLLGCKPSSVPMDPSVTFSAHSGGDFVDAKAYRRLIGRLMYLQITRLDISFAVNKLSQFSEAPRLAHQQAVMKILHYIKGTVGQGLFYSSQAEMQLQVFSDASFQSCKDTRRSTNGYCMFLGTSLISWKSKKQQVVSKSSAEAEYRALSFATDEMMWLAQFFRELQLPLSKPTLLFCDNTAAIHIATNAVFHERTKHIESDCHSVRERSVYQATLSYSFQAYDEQDGFTEYLSPILRGTIMYIVSMFGLAGLEALICFIFLFLFSFLTSFKASAQNPFYLNHDCPNRTTYSSNSTYSTNLKTLLSSFASRNASYSTGFQNIRAGQTPDRVTGLFLCRGDLSPEVCSNCVAFSVNESLTRCPNQREAVFYYEECILRYSHKNFLSTVTYEGELIMRNPNNISSIQNQRDQFIDLVQSNMNQAANEAANSSRKFSTIKTELTSLQTLYGLVQCTPDLARQDCFSCLTSSINRMMPLFRIGARQFWPSCNSRYELYAFYNETAIGTPSPPPLFPGSTPPLTSPSIPGKSGNSTVLVVAIVVLAVLLFIALVGYCFLAQRTKKTFDTASASEVGDDMATADSLQLDYRTIQTATNDFAESNKIGRGGFGEVYKGTFSNGKEVAVKRLSKNSRQGEAEFKTEVVVVAKLQHRNLVRLLGFSLQGEERILVYEYMPNKSLDCLLFDPTKQTQLDWMQRYNIIGGIARGILYLHQDSRLTIIHRDLKASNILLDADINPKIADFGMARIFGLDQTQDNTSRIVGTYGYMAPEYAMHGQFSMKSDVYSFGVLVLEIISGRKNSSFDESDGAQDLLTHTWRLWTNRTALDLVDPLIANNCQNSEVVRCIHIGLLCVQEDPAKRPTISTVFMMLTSNTVTLPVPRQPGFFIQSSPVKDPTDSDQSTTTKSTPASIDDELITDLYPR”, the protein production was “failed”.

With “MSYSNILVAVAVTPESQQLLAKAVSIARPVKGHISLITLASDPEMYNQLAAPMLEDLRNVMQEETQSFLDKLIQDAGYPVDKTFIAYGELSEHILEVCRKHHFDLVICGNHNHSFFSRASCSAKRVITSSEVDVLLVPLTGD” the protein production was “failed”.

In the case of “MTIKSLLSDIEREERNVHKAIKDSVKRNDLVTAKALAREIVSSRRTVKRLYENKAQVNSISMHLGESIATAVTVGNLSKSGEVMKLVNSLMKAPEIAVTMQAFSKEMTKTGVIEEFVSDAVDNALDSEDIEEEIEEEVDKVLTAIAGETAAELPEAVRKQKMNVPAQKAETLHGEDAIVEGVDAEEELEAIRYRLANVRS”, the protein production was “failed”.

For “MTQAFSRVRFIMTQPSHPGNVGSAARAIKTMGFGELVLVAPRFPDMTAQPEAVALASGALDVLERAAVHDTLEEALAPVTLAFALTARVRDLGPPPCDIREAAGLARRHLDDTEAGVVAIVLGTERAGLTNAQIELCHRICHIPANPQYSSLNVAQALQLAAWELRYALLAGTGQPLLPASSAQQANPGAAPADGAAVQALLAHWEQALVAVGFLDPAHPKKLMPRMKHLLTRSALSRDEVDMLRGVCTAMIAPNRPK”, the protein production was “failed”.

For “MSLKITKVEVIPISTPMKRAQLMRGATLARIDGVLLKLHSDEGLVGIADAGDTSSWYRGETQDSITSMICDFFAPKVLLGEDPTKIEKIVGRMDILTRDNNQAKATVDFALHDLVGKRFGVPVYQLLGGKTIERIPLGLVLGAGEPEAVAEEALAVLREGFHFVKLKAGGPLKADIAMVAEVRRAVGDDVDLFIDINGAWTYDQALTTIRALEKYNLSKIEQPLPAWDLDGMARLRGKVATPIYADESAQELHDLLAIINKGAADGLMIKTQKAGGLLKAQRWLTLARLANLPVICGCMVGSGLEASPAAHLLAANDWIAQFPQENAGPLHIHDCLNSRDIDNDIALNVPRFEGGYLYPNDGPGLGIELNEDLVRRLVTPGKAARVVTAEGHHHHHH”, the protein production was “not failed”.

In the case of “GSSGSSGMGNSKSGALSKEILEELQLNTKFSEEELCSWYQSFLKDCPTGRITQQQFQSIYAKFFPDTDPKAYAQHVFRSFDSNLDGTLDFKEYVIALHMTTAGKTNQKLEWAFSLYDVDGNGTISKNEVLEIVMAIFKMITPEDVKLLPDDENTPEKRAEKIWKYFGKNDDDKLTEKEFIEGTLANKEILRLIQFEPQKVKEKMKNA”, the protein production was “not failed”.

For “MIERLELRNLTVFTGLTLELSPKINVIIGENGTGKTHLLKAAYGLCAGAPLFKNKPDTGDDELEAALTAKLLRLFMPLDDKLGKMHRQGATDQAYLSAKFAGGQKIAATFFNNSKALAVQDRANYEKYQAEAVFIPTKEVLSFMKGFNSLYEKYGLSFDQTYQDICLLLDLPEVRPETLHEKSKWAMAEIEGICGGRFVFYGGGKVTFKTENAEYSANSMAEGFRKAGILSRLLETGAIQPGVSGPLFWDEPESNLNPKLMKLLVQILLELSRNGQQIILATHDYVLLKWFDLLMDKGKDDHVRFHSLYRDADTSEIKVASTEDYLKITPNPIDEAFGFLINQEIENDMGGLGK”, the protein production was “failed”.

With “MKVLLVLTDAYSDCEKAITYAVNFSEKLGAELDILAVLEDVYNLERANVTFGLPFPPEIKEESKKRIERRLREVWEKLTGSTEIPGVEYRIGPLSEEVKKFVEGKGYELVVWACYPSAYLCKVIDGLNLASLIVK” the protein production was “not failed”.

In the case of “MSLSNVQVNSSQRDEDSFIKGVKDCIPTLLGYLSIGIAAGVIQKTAGLSIAEITLMSLILYAGSGQFIAAGMIATSSSLTAIIITIFFVNLRHILLSAALAPYFRHLSPFRNMLVGSLLTDETFGVAISEAAKKKQISERWMHGLNITAYINWLVANLAGAFLAQWISNPEEFGLGFALPAMFIGILILTMLGRSTIKLDIIVAIIAVVIAVGSSFMLSSSMGVIVATIIASTIGMVVEKWK”, the protein production was “failed”.

For “TGGLAIIQSMKHKLPPSERKLADYILAHPHKAIESTVNEISALANSSDAAVIRLCKSLGLKGFQDLKMRVAGDLAKPTFQGYRDIVPHEPLPSISEKTAGNAIQAI”, the protein production was “failed”.

For “MATIAAADRTVTSVRPAELGVKVVIVMALLLIVMLIFAYKVVSLHNMKDEPFWAAYGLIITAFIFTRFGLAALYRPPRRDTGNYWPVVAIIVPAYNEPDIARTLLHCVGVDYPRELLRVVVVDDKSSDDTLRRITDFAAEHPNLTVIPHEVNGGKRRAMATGMAAADDADLFVFIDSDSQVTRDAIRVIASYFADSSVGAVCGHTDVTNISHNILTRMQAMQYYIAFRIYKSAEALFGSVTCCSGCFSAYRADAVRPVADKWLNQTFLGRPSTFGDDRSLTNYLLRDWRVLYAPDAQAYTNVPEHLKQFLRQQLRWKKSWLREAPRAMCAVRRKNPVMVVMFALSIVLPLIAPQVVMRAFVVQPHFISQLPFWYFGGVAAIAVIYGLFYRLHRPVKRWYQGIFFTMFYTIILVLQMPYAMVTIRDSKWGTR”, the protein production was “failed”.

With “MISRHLQNNLMSVDPASSQAMELSDVTLIEGVGNEVMVVAGVVVLILALVLAWLSTYVADSGSNQLLGAIVSAGDTSVLHLGHVDHLVAGQGNPEPTELPHPSEGNDEKAEEAGEGRGDSTGEAGAGGGVEPSLEHLLDIQGLPKRQAGAGSSSPEAPLRSEDSTCLPPSPGLITVRLKFLNDTEELAVARPEDTVGALKSKYFPGQESQMKLIYQGRLLQDPARTLRSLNITDNCVIHCHRSPPGSAVPGPSASLAPSATEPPSLGVNVGSLMVPVFVVLLGVVWYFRINYRQFFTAPATVSLVGVTVFFSFLVFGMYGR” the protein production was “failed”.

With “MNSSESKSLVVIGGGGHASVLVDILRSQQREILAIVSPENISQRRIFSGITHLKNDDDILRFSPDSVNLVNGVGMLPKSGLKRKLNEYFLSLGYTFETVISDSAQVSSFAEIEQGAQVFSGAIIQAGVVIDAHTIINSGVIIEHDCHIGEYNHIAPKATLCGQVTTHSNVYVGANATVIQNITLEQGSIVGAGAIVTKNISSEQICYPSRSVLK” the protein production was “failed”.

— a protein production outcome set (Wang et al. 2014)
